Data reported in article doi:10.1101/2024.06.06.597810.

Biological target: Biotin-labeled MHV stem helix peptide (MHV)
Experiment: BLI

S2P6 WT Fab
Kd: 70.4 nM
